Numbering of substitutions follows the chain as printed. Names and notes keep the numbering of the source.
What was measured:
[1] = system: GFP-HSF2BP; assay: Co-immunoprecipitation of Flag-BRCA2 variants/fragments with GFP-HSF2BP WT; assay type: cell-based, human; settings: transient HEK293T, anti-GFP beads, immunoblot
Description: (§1) Expression constructs for producing point mutation and truncation variants of HS2BP and BRCA2 in human cells were engineered as described before[16] in the PiggyBac vectors by Gibson assembly. For transient expression into HEK293T cells plasmid DNA was transfected using calcium precipitation method or PEI transfection. For stable integration into HeLa cells, PiggyBac expression vectors were co-lipofected together with PiggyBac transposase plasmid (hyPBase[45]) with Lipofectamine 3000 (Thermo Fisher).
(§2) Cells were washed twice in ice-cold PBS and lysed in situ in NETT buffer (100 mM NaCl, 50 mM Tris pH 7.5, 5 mM EDTA pH 8.0, 0.5% Triton-X100) supplemented immediately before use with protease inhibitor cocktail (Roche) and 0.4 mg/ml Pefabloc (Roche) (NETT++); 450 µl NETT++ buffer was used per 145 mm dish ES cells, 1 ml for HeLa and HEK293T. After 5–10 min, cells were scraped off and collected in 1.5 ml microcentrifuge tubes; lysis was continued for additional 20–30 min on ice, then mixtures were centrifuged (15 min, 4 °C, 14,000 × g) and the supernatant (input) was added to washed anti-GFP beads (Chromotek). Beads and lysates were incubated 2–4 h at 4 °C while rotating, washed three times in NETT++ buffer and bound proteins were eluted by boiling in 2x Sample buffer. Immunoblotting was performed following standard procedures with the following antibodies: anti-GFP mAb (Roche, #11814460001), anti-GFP pAb (Abcam #ab290 and Invitrogen #A11122), anti-RAD51[46], anti-BRCA2 mAb Ab1 OP-95 (Millipore #OP95), anti-BRCA2 (Abcam #27976), anti-Flag (M2 antibody, Sigma, F3165 and F1804). For quantitative immunoblotting fluorescently labeled secondary antibodies were used: anti-mouse CF680 (Sigma #SAB460199), anti-rabbit CF770 (Sigma #SAB460215); membranes were scanned using Odyssey CLx imaging system (LI-COR).

[2] = system: H3 fragment (the ARM domain) of HSF2BP; assay: Co-immunoprecipitation of Flag-BRCA2 fragments with GFP-HSF2BP fragment H3; assay type: cell-based, human; settings: Fig. 1c; HEK293T; comparison with F15 and F9; reviewer's reading of the figure
Description: as §1
as §2, with “Beads and lysates were incubated 2–4 h at 4 °C while rotating, washed three times in NETT++ buffer and bound proteins were eluted by boiling in 2x Sample buffer. Immunoblotting was performed following standard procedures with the following antibodies: anti-GFP mAb (Roche, #11814460001), anti-GFP pAb (Abcam #ab290 and Invitrogen #A11122), anti-RAD51[46], anti-BRCA2 mAb Ab1 OP-95 (Millipore #OP95), anti-BRCA2 (Abcam #27976), anti-Flag (M2 antibody, Sigma, F3165 and F1804).” left out

[3] = Stability / expression of recombinant GFP-HSF2BP variants; parameters: species or system human; settings: peer review file; immunoblot, FACS
[4] = system: mitomycin C-induced repair foci; settings: cited from earlier work
Description: Consistent with our in vitro study, we observed in mouse ES cells that deletion of exon 12, coding for motif 1, causes a severe decrease in the BRCA2-HSF2BP interaction, and deletion of exons 12 to 14, coding for motifs 1 and 2, completely abolishes this interaction (Fig. 5d, e). […] We further previously ...

B1: F16: Flag-tagged BRCA2 fragment 2270-2333 (protein, UniProt P51587 2270-2333, looked up, fragment)
chain: GKRRGEPLILVGEPSIKRNLLNEFDRIIENQEKSLKASKSTPDGTIKDRRLFMHHVSLEPITCV
modifications: Flag tag
interaction with HSF2BP (co-precipitation) [1]: reduced efficiency | interaction with H3 (co-precipitation) [2]: same level of interaction

B2: L85R: GFP-HSF2BP point mutant (protein, UniProt O75031 1-334, looked up, variant L85R)
Heat shock factor 2-binding …: MGEAGAAEEACRHMGTKEEFVKVRKKDLERLTTEVMQIRDFLPRILNGEVLESFQKLKIVEKNLERKEQELEQLKMDCEHFKARRETVQADNIREKKEKLALRQQLNEAKQQLLQQAEYCTEMGAAACTLLWGVSSSEEVVKAILGGDKALKFFSITGQTMESFVKSLDGDVQELDSDESQFVFALAGIVTNVAAIACGREFLVNSSRVLLDTILQLLGDLKPGQCTKLKVLMLMSLYNVSINLKGLKYISESPGFIPLLWWLLSDPDAEVCLHVLRLVQSVVLEPEVFSKSASEFRSSLPLQRILAMSKSRNPRLQTAAQELLEDLRTLEHNV
modifications: GFP fusion
notes: GFP-HSF2BP point mutant
stability of recombinant GFP-HSF2BP variant [3]: unstable

B3: R200T: HSF2BP mutant R200T (protein, UniProt O75031 1-334, looked up, variant R200T)
Heat shock factor 2-binding …: B2 Heat shock factor 2-binding … with R85L, R200T
localization of GFP-tagged HSF2BP to mitomycin C-induced repair foci [4]: abolishes localization

Reference: article PMC8322138, “BRCA2 binding through a cryptic repeated motif to HSF2BP oligomers does not impact meiotic recombination” (Nature Communications, 2021)
